Measurements published in patent US20190184025A1.

Columns and labels:
[1] = biological target: Rat EphA2, biotinylated (in house) (Rat) (UniProt D3ZBN3); assay: SPR, biotinylated rat EphA2 on streptavidin
[2] = biological target: Human EphA2, biotinylated (in house) (Human) (UniProt P29317); assay: SPR, biotinylated human EphA2 on streptavidin
[3] = biological target: Mouse EphA2 Fc fusion (Mouse) (UniProt Q03145); assay: SPR, mouse EphA2-Fc captured by anti-human IgG
[4] = biological target: Mouse EphA2 (Ecto), C-terminal polyHis (Mouse) (UniProt Q03145); assay: FP competition against Reference Compound C (Study 2)
Mouse EphA2 (Ecto), C-terminal polyHis (Mouse), sequence (Q03145 26-538): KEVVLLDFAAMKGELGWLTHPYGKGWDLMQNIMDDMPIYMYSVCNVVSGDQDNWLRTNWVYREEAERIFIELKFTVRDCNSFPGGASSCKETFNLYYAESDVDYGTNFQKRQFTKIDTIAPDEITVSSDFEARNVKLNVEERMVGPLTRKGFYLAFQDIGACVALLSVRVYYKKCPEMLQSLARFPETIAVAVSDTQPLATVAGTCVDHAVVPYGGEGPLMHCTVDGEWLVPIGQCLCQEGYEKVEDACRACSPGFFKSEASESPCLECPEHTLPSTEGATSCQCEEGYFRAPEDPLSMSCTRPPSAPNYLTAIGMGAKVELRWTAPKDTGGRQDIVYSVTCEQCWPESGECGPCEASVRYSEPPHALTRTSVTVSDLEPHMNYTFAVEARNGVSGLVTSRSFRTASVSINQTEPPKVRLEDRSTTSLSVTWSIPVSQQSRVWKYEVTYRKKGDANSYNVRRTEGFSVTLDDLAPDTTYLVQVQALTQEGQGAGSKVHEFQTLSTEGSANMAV

Mouse EphA2 Fc fusion (Mouse), sequence (Q03145 26-535 limits assumed): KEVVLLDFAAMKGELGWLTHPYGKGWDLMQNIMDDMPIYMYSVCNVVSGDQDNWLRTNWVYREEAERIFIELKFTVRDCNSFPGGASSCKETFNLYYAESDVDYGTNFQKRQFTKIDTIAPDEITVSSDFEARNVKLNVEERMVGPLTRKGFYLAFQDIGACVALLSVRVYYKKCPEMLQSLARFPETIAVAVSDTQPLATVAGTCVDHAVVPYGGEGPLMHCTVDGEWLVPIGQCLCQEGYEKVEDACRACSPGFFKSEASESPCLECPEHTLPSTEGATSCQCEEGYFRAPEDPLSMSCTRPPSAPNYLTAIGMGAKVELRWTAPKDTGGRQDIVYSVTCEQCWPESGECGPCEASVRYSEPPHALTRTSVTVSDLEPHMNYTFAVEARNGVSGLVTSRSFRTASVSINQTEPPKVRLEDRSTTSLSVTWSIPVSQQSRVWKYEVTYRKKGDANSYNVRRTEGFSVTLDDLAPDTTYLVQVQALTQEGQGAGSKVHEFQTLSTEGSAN

For BCY6136 (peptide), the Kd [1] was 2.96 nM, the t1/2 [1] was 12.6 min and the Kd [2] was 1.17 nM. For the same substance, the t1/2 [2] was 10 min, the Kd [3] was 2.53 nM and the t1/2 [3] was 10.4 min. For the same substance, the Ki [4] was 5.5 nM.
